Assays:
[1] = target: Peptide sequence V: Bz-…(mPeg2)(KLCBiot)-amide; test: ECL bead immunoassay; uncleaved peptide sequence V on streptavidin beads, FXa 0.00 ng/mL, 20 minute incubation
[2] = target: Peptide sequence V: Bz-…(mPeg2)(KLCBiot)-amide; test: ECL bead immunoassay; uncleaved peptide sequence V on streptavidin beads, FXa 0.00 ng/mL, 10 minute incubation

BV TAG Plus-conjugated ANTI-FLAG® M1 antibody
Mean Signal (ECL, background without FXa) [1]: 319 ECL signal | Mean Signal (ECL, background without FXa) [2]: 345 ECL signal

Reference: US20140141450A1
